Assay results taken from US20210238260A1.

Target: antithrombin III (plasma purified human AT-III), used as the AT-III/unfractionated heparin complex (human), P01008
Assay: K0.5: AT-III/UFH titrated against FIXa, 10 s, residual cleavage of Mesyl-D-CHG-Gly-Arg-AMC
Settings: remark: other sources report otherwise

B1: FIXa-R318Y/R338E/R403E/E410N, P00740 47-191; P00740 227-461 (enzyme)
chain 1: YNSGKLEEFVQGNLERECMEEKCSFEEAREVFENTERTTEFWKQYVDGDQCESNPCLNGGSCKDDINSYECWCPFGFEGKNCELDVTCNIKNGRCEQFCKNSADNKVVCSCTEGYRLAENQKSCEPAVPFPCGRVSVSQTSKLTR
chain 2: VVGGEDAKPGQFPWQVVLNGKVDAFCGGSIVNEKWIVTAAHCVETGVKITVVAGEHNIEETEHTEQKRNVIRIIPHHNYNAAINKYNHDIALLELDEPLVLNSYVTPICIADKEYTNIFLKFGSGYVSGWGRVFHKGYSALVLQYLRVPLVDRATCLESTKFTIYNNMFCAGFHEGGRDSCQGDSGGPHVTEVEGTSFLTGIISWGEECAMKGKYGIYTKVSEYVNWIKNKTKLT
Question: B1 was tested. Which IC50 did it give?
Answer: The IC50 was 5.88 µM.
